Non-standard residues stand in square brackets, D forms with d. No end group written: not given here.
These binders were tested against full length PCNA's binding partners (assay: cell-based or functional assay).

First: RRRRRRRRRCCLAIPEQEY [R9-L127A]
Second: RRRRRRRRRCCLGIPAQEY [R9-L130A]
The % cancer cell death, U937 cells, 30 µM peptide, 24 h, flow cytometry of the first is higher: 47% for the first, 45% for the second.

Going from RRRRRRRRRCCLGIPEQAY [R9-L132A] to RRRRRRRRRCCLGIAEQEY [R9-L129A], the % cancer cell death, U937 cells, 30 µM peptide, 24 h, flow cytometry falls from 88% to 80%.

First: RRRRRRRRRCCLGIPEQEA [R9-L133A]
Second: RRRRRRRRRCCLGAPEQEY [R9-L128A]
The % cancer cell death, U937 cells, 30 µM peptide, 24 h, flow cytometry of the first is lower: 7% for the first, 21% for the second.

Compared with [dR][dR][dR][dR][dR][dR][dR][dR][dR]CCLGIPEQEY (cysteine pairing not given here) [R9-caPep (D-nonaarginine linked caPeptide, …)], RRRRRRRRRCCLGIPEAEY [R9-L131A] is higher in % cancer cell death, U937 cells, 30 µM peptide, 24 h, flow cytometry: 43% for the first, 93% for the second.

In the case of RRRRRRRRRCCAGIPEQEY [R9-L126A], the % cancer cell death, U937 cells, 30 µM peptide, 24 h, flow cytometry is reported as 8%.

In the case of [dR][dR][dR][dR][dR][dR][dR][dR][dR]CCLGIPEQEY (cysteine pairing not given here) [R9-caPep (D-nonaarginine linked caPeptide, …)], the % Dead Cells, MCF 7 (breast cancer) cells, 50 µM R9-caPeptide, 48 h, flow cytometry is reported as 91.5%.

Work on [dR][dR][dR][dR][dR][dR][dR][dR][dR]CCLGIPEQEY (cysteine pairing not given here) [R9-caPep (D-nonaarginine linked caPeptide, …)] yielded a % Dead Cells, MCF 10A (non-malignant) breast cells, 50 µM R9-caPeptide, 48 h, flow cytometry of 18.2%.

For [dR][dR][dR][dR][dR][dR][dR][dR][dR]CCLGIPEQEY (cysteine pairing not given here) [R9-caPep (D-nonaarginine linked caPeptide, …)], the apoptotic cells, U937 cells, 50 uM R9-caPep was 93%.
